Assay results as given in the DeepSol protein solubility set.

Experiment: soluble on expression in E. coli; label from the status in PepcDB or PDB records

Sequence	soluble on expression in E. coli
MELAVHDATEDGAGYATAASSWVVVEPEFVVDVTDIRSFVQCPRLYYLNKLSGLPLKYPVTKGTIVHEVFGDLLRGRDLEASVAQRVDEAGLELGLLGRSRAEVEADVRDNASAIEGWLQQGRLTDEDEWRSEYTLVSERFGIKGRCDAIRRGMPVELKTGKNTNREPRFHDKVQAACYALMLDEHGVPADTGTLLYTKNAAVDRSEASGDLSPAKEFSIGRGFLEFVVRERNHLAALEASDGPPTGYEADAKCDYCFEQDTCMVVSGRLDQESKAGRIGDPVPAEERAYFDELYDAIEAERGAIHDEYRKLWEQSPDERAADDRAVVGLSPAEQTELPDGRWRLTATRPGSAASKIREGDRVLASDGDPVAGRAEMARVERLDADRVEVTTDEPVSLCRLDVYPSELSVDRMLTALHDAVLKSDQRRTDLLFDRASPRFEGGDHDLIPNNDAQNAAVNRALNAEDFALVHGPPGTGKTYTIATLVQAFVARGDRVLVSAFTNRAVDNALDALRQQGHEDIVRVGTETGVRADMQDLRLDRSGDPGERAAALRSAPVVAATTATCGSRILRELEFDVVLVDEASQLTEPDTLAAINRGARFVLVGDHEQLPPVVRSGGRLSKSLFERLHETYPEASVMLDQQYRMSQRIQAFSSREFYDGQLRPASSEVAGQRLTDVGVDPGGAVHGGVTFYDVPGTDDAHVDPAEADRVADVVTAYVDAGLDPGEIGVIAPFRAQVAEIGRRTPAGVAVDTVDRFQGSSKEVIVVSFVARGTLEGPIFEDHRRVNVALSRAKKSLVLVGDERALRSEPLYDRMIDWADMELEHHHHHH	not soluble
MAHHHHHHMRSNRNGSHSFFFLSVYSWFIFSPFEVFDDEYFLVDEKEKYVFLFVFVFMEEKRICVVVFPVPKVHAAAEIVIVDAVLFPHAADTDELKLCHF	not soluble
MANSFTFWNDCVEPEDLEEMWMDPAVSAEWIDVGETKGQKVHLSRDPDGQPYLTQTEMRAVSDITVRRHFDSILDSEMICAIAELESDRKPLIMRYSKKTKETGLGILQVFEKTAAWLAGGQGYQAYNVDDNPDLLHKPFINVYFGAAYLKWLTDYQNNQRSEEFVVRAYNGGTKKATHKSTLPYWKRYLAVKESLPSRKHGDAGPSSFRPTNPASPGSNTDFTYWDSRASPEDMEDMWNQSEICKEWTKSKEERGKVRFSQDGEKRPYLSRGELKAVAEIIVSKYFSTKGIRVPLVCAIADTVCMRFVNGIKKHVGILGVDYSTASWLYSELGYRAYRVDSADDLTKPFISMYFGVAYLVWLSEYEGSQRSNQFIVQAYMKGPDHVDLEESCPLWLKFEQALSYYEESKRDSGSCVIL	not soluble
MGSDKIHHHHHHMQDSMYSALFGALTNEHRLNNIANNLANVNTTGYKRDVLAFKDTFLSFAHDEVMEPIPNVRSKKMFPEPIHIAKPRIALAKTDFSQGSLKLTGGTLDMAVHGDGFFKVRTPDGEFYTRNGNFRQTSDGQLVTQQGWPVLGAGGDIQIPPRANLTVAENGTIYADGEEIGQVQVVTLDNLDALEKQGSNLFRLREGAEAQEVPVENPVVLQGFLETANVEVVTEMVNMIEANRQFEAYQKIMQTTDAVDKMATTQVGRGRA	not soluble
MSLSDELAKLVVEVTSPDGNIKAKLVAGEQLTVAFRPGTYARYDERGLEHQLSRLAMLAWTGYRRGFFEAKGRAEDISAKDAEKEHLNHWDANTRRYNEEMAQIVARGKSSGNVIRAQAKGLAFWKVEIRDGTLASMDEATFCAECVSVLAAVQRDSKNQEILLKDFYFGLNIPKSWRKKNPLRIERGVMD	not soluble
MAHHHHHHMDKIKSWLGFNKKIVFTENKFLLRNVNDQESLQAENVRAEDYPIPEKYLEDPDKIPKYYVFQSNMVTDEDLQPGMLRQLEVDKRLTLPTRTHISFLVTATDVIHSWSIPSLGIKADAIPGRLHKITTFILREGVYYGQCSEMCGTLHGFMPIVVEAVSPEAYAAHAKKYYKE	not soluble
RVSNEFPPREYIATVYNRICNYLQIGEGEGFERSFDFDIDAFCRNFRMFPTQVLAAIRILDVAGIWEYREEKTRSRLTIQVQRDELYRMRSEQASDSVLTALMRTYDGLFADYVSIVESELAEKTGLSVDQVYQQLLLLNKAGIVNYIPQKNLPRIYFLTRREDAELLQIPRAAYEDRRDRLKARIDQSLRYIEEENTCRSRMLLAYFGEEQSHNCKLCDVCLRRKDGELHHHEVDDLLHFLEQRLTEETPYVLIADICRELHHHPDVVLKAIRFVMKESWQYSTDGDTVFLTHKLPGGLNL	not soluble
MVRMALEGMSKRKRKRSVQEGENPDDGVRGSPPEDYRLGQVASSLFRGEHHSRGGTGRLASLFSSLEPQIQPVYVPVPKQTIKKTKRNEEEESTSQIERPLSQEPAKKVKAKKKHTNAEKKLADRESALASADLEEEIHQKQGQKRKNSQPGVKVADRKILDDTEDTVVSQRKKIQINQEEERLKNERTVFVGNLPVTCNKKKLKSFFKEYGQIESVRFRSLVCFIPPLEHHHHHH	not soluble
MGSDKIHHHHHHMNLATPSQMTAASIETFDATSCAAFSACYPETPHKLVHRLRDHPLLQLDALAALGEELPAHSVEYNRADLPIGLNGGKAPPNGIGIGETIRNIASTGSWAALKNVEQVPAYAALLGELLEGLRPTIEARTGAMLKPQGFVFVTSPDGVTPYHFDPEHNILLQLMGSKVMTMFPAGDSRFAPDETHETYHTGGGRELFWRDELLGHGRQWPLSPGEALYVPVMSPHFVTNGPSPSVSLSITWRSEWSFAEADARAFNGLLRSMGLKPGAPRRWPASNRAKAMCWRLYGKVRGLR	not soluble
MESIKLSQKAEEEIVNAARMAALSNLTEKSQNLITLEDIAIYFGRHYQTVAKIISKLPNFPKPVTPVTVDQQNSRPRYIAGEVVRWGRINAKPY	not soluble
MNSQELLAIAVDAIDNKKGEDTISLEMKGISDMTDYFVVTHGNNERQVQAIARAVKEVANEQNIEVKRMEGYNEARWILIDLADVVVHVFHKDERNYYNIEKLYQDAPLESYSQVAYLEHHHHHH	not soluble
MNNRSAVRILRLPAVIQKTGMARATIYDWLNPKSPRYDATFPKKRMLGVKSVGWIEAEIDEWLSQRCKLI	soluble
MGSDKIHHHHHHVSGAILSGPEQKPDQDDIETALFRHLAQQGWCLSAPTPLAGGRSNHVWRAGDKVVKLYRSDAHNPLFANDPDRERAMLRALSGTGMAPRFLAHGLWQGQAWLMYTHVCGARWESDPSHVARILSIVHDQAKPRGLPFGCNGSEALAQQTRQIVSAASQGTTLLDRAPQGVVPPTSQLCLIHGDPVPGNIVAHNGTLALIDWQCPQLGDPAEDLALFLSPAMQLAYRGRVLSRQEEAEFVTAYPHPRVVARYYALKPWFHWRMAAYCAWRGETDARDLELAEI	not soluble
GSHMSAMAESKVLVKGTPFNKPVIKGKLENNYDMSQDEVSLLLFLKTHGGKIPLYRIKNETGLKDPESVLKNLMDYGFALEDKERLGEKIVLTSEGEFVAQAIRVRDEELRLKEMKQKKNVNRSSAPPQ	soluble
SYYHHHHHHDYDIPTTENLYFQGAMGSFGSKDAAADGKPLVVTTIGMIADAVKNIAQGDVHLKGLMGPGVDPHLYTATAGDVEWLGNADLILYNGLHLETKMGEVFSKLRGSRLVVAVSETIPVSQRLSLEEAEFDPHVWFDVKLWSYSVKAVYESLCKLLPGKTREFTQRYQAYQQQLDKLDAYVRRKAQSLPAERRVLVTAHDAFGYFSRAYGFEVKGLQGVSTASEASAHDMQELAAFIAQRKLPAIFIESSIPHKNVEALRDAVQARGHVVQIGGELFSDAMGDAGTSEGTYVGMVTHNIDTIVAALAR	soluble
MGSDKIHHHHHHVSSTIWTPTAVASEAAAIRFSLWRAVEGQHAVSTMVLVDSLEEQALLEQLLEGSKPPVPASANGLHWLLFTPFRYPPPPTGSRFRGPLDPGVFYGADEIETACAELGFWRWQFLMESPSLTALDPKPQTVFKVEVDTLTVDLRSPPFTESRALWIDPKSYAATQDLARSAREANIGAIRYESVRAPNRGGCGAILTPMAFAEPQPRDAQTWWLSVSRERVLWQRDDVLQRATFAFDTKAFCE	not soluble
MKQMNVVLIGGGTGLSVLARGLREFPIDITAIVTVADNGGSTGKIRDVMDIPAPGDIRNVIAALSDSESILTQLFQYRFGENQVDGHSLGNLVIAGMTNITNDFGHAIKELSKVLNIKGQVIPSTNASVQLNAVMEDGEIVHGETNIPKTHKKIDRVFLEPSDVEPMNEAIEALEQADLIVLGPGSLYTSVISNLCVKGISEALLRTSAPKLYVSNVMTQPGETDNYDVKEHIDALTRQVGEPFIDFVICSSESYSKDVLQRYEEKNSKPVAVHKEQLKDSGIRVLTASNLVEISNEHYVRHNTKVLSKMIYELALELTSTIRFTPSDKKKMAGDPLEHHHHHH	soluble
MSLHSDILVVGAGPAGLSFAAELAGSGLKVTLIERSPLTVLQNPPYDGREIALTHFSREIMQRLGMWDKIPENEIYPLRDAKVLNGRSDYQLHFPQPTEARGEPADCLGYLISNHNIRRAAYEVVSQLDNVSILTDTAVKEVKTSDNEAQVFLENGDILTARLLLAADSRFSQTRRQLGISSDMHDYSRTMFVCRMKHTLSNQHTAYECFHYGRTIALLPLEKRLTNTVITVDTDKINSVQNLSPEELAASVKEQLKGRLGDMELVSSIHHYPLVGMIAKRFYGKRSALIGDAAVGMHPVTAHGFNLGLSSADILAKLILEAEQRGQDIGAASLLEKYSSKHMLHAHPLYHGTNMMLKLFTNETAPAKLLRGLVLRAGNNFPPLKKLITKQLTGLEHHHHHH	soluble
MNKVAIAVAAVVAGSSALLNSAQAEMYIGGKVGMTTLDDACYLNSPCDDEAFGAGLHIGYDFTDFIGLEYGVDFLGDYKANFKSGASTVDTIDGNLTALTLAPKFNWHLNDSWNLFAKIGGAYMMSEDEKDFVATGSLGAEYSIDRNWSVRAEYQRYQDMSDDVWDDMDANFFGIGVNYKFAAAPVVAAVVTEEVVEPDPEPVLMSKVH	not soluble
MDTIIYYSEMEGISLEHLKRSSGYDMRSNHFHNEYEIYFLTEGERLFFFNNRAYQVKKGSLILVDTNLIHMTHAPEDDTTGYTRIILYIDKFKMQQFDEKFPHLNLVPFFREHYGVYNLTQKQQEKFLHMYEVLKTEFSNRSRSYKALIEMEIIHYFIDFIRDNPELTPIKDETAIHKSSKYQ	not soluble
MGSDKIHHHHHHMKGYFGPYGGQYVPEILMPALEELEAAYEEIMKDESFWKEFNDLLRDYAGRPTPLYFARRLSEKYGARIYLKREDLLHTGAHKINNAIGQVLLAKKMGKTRIIAETGAGQHGVATATAAALFGMECVIYMGEEDTIRQKPNVERMKLLGAKVVPVKSGSRTLKDAINEALRDWITNLQTTYYVIGSVVGPHPYPIIVRNFQKVIGEETKKQILEKEGRLPDYIVACVGGGSNAAGIFYPFIDSGVKLIGVEAGGEGLETGKHAASLLKGKIGYLHGSKTFVLQDDWGQVQVTHSVSAGLDYSGVGPEHAYWRETGKVLYDAVTDEEALDAFIELSRLEGIIPALESSHALAYLKKINIKGKVVVVNLSGRGDKDLESVLNHPYVRERIR	not soluble
SEKYNSLSDFLKEFYIPTYVLSAETEEEEEEESRPTPASPVLVFINSKSGGQLGGELILTYRSLLNHNQVFDLDQETPDKVLRRIYLNLERLKDDDFARQIREKLKIIVAGGDGTAGWLLGVVCDLKLSHPPPIATVPLGTGNNLPFAFGWGKKNPGTDRTAVESFLEQVLKAKVMKIDNWHILMRMKTPKEGGSCDPVAPLELPHSLHAFHRVSPTDELNKEGCHTFRGGFWNYFSLGMDAQISYAFHSERKLHPEKFKNQLVNQSTYVKLGCTQGWFCASLFHPASRNIAQLAKVKIATRNGQWQDLHIPHSIRSIVCLNLPSFSGGLNPWGTPNPRKQRDRGLTPPFVDDGLIEVVGFRNAWHGLVLLAPNGHGTRLAQANRIRFEFHKGATDHTFMRMDGEPWKQPLPLDDETVMVEISHLGQVNMLATHDCRSRSVFDPSTPRHQDGAEDYDDNEDDSVAEGEEFRKFGAADTFKIPDEVDISQLS	soluble
